# In patent publication US20250049941A1, “ANTI-CD39 Antibody-Drug Conjugate And Use Thereof” (priority 2021, published 2025):
# T1: human CD39 naturally expressed on MOLP-8 cells (human, UniProt P49961 1-510)
# T1 construct: whole, on cells; also called CD39 antigen; CD39 protein
# T1 sequence (looked up): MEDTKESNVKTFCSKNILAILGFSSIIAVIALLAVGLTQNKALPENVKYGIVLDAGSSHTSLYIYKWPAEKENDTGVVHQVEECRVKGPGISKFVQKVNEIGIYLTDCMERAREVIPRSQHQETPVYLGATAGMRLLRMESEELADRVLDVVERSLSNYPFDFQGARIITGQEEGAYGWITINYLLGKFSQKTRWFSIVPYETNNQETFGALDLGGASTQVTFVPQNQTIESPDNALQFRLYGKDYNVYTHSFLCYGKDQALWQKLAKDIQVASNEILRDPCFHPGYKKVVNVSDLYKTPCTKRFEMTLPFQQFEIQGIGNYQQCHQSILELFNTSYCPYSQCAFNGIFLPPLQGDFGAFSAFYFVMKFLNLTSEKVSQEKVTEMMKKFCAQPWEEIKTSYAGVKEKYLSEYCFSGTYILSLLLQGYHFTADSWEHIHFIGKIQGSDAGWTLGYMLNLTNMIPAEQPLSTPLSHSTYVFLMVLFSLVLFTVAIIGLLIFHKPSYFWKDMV
# Biological target: T1, human CD39 naturally expressed on …
# Experiment: flow cytometry on MOLP-8 cells, FITC goat anti-human H+L secondary antibody
binder,measurement,value
"humanized monoclonal antibody F314 (antibody, human IgG4 S228P, kappa, V domains shown, Expressed in CHO-S cells; also called F314 monoclonal antibody; naked antibody) VH: QVQLVQSGAEVKKPGASVKVSCKASGYTFTNYWMYWVRQRPGRGLEWIGRIAPSSGATKYNEKFKNRATLTVDTSISTAYMELSRLRSDDTAVYYCARSGIYYDYDWFFDVWGQGTTVTVSS VL: DIQMTQSPSSLSASVGDRVTITCKASQDINKYIGWYQQKPGKAPKLLIHYTSTLQPGVPSRFSGSGSGRDYTFTISSLQPEDIATYYCLQYHALLFTFGQGTKLEIKR",binding result,binds
